Reference: paper PMC7954794, “Protein context shapes the specificity of SH3 domain-mediated interactions in vivo” (Nature Communications, 2021)

Columns and labels:
[1] = tested on: Abp1 (1xFLAG); assay: Western blot expression level of Abp1 SH3-swapped baits (Fig. S2A-B); assay type: cell-based, Saccharomyces cerevisiae; design: Flag (2 bands): unit not given here; details: sheet FigS2A-B; for Ratio Swap/WT Flag: Flag signal relative to Abp1 WT (Abp1-1 to Abp1-4 = 1); for Flag (2 bands): Western blot Flag signal (2 bands), Abp1 WT, SH3-deleted or SH3-swapped
Procedure, shortened: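 Yeast expressing DHFR F[1,2]-FLAG-tagged baits grown in synthetic complete medium at 30 °C to OD600 ~1.0, lysed with glass beads in Tris pH 7.4/150 mM NaCl/1% Triton X-100. Baits immunoprecipitated on FLAG-M2 beads 120 min at 4 °C, resolved on 10% SDS-PAGE, probed with anti-FLAG HRP (ECL), signals quantified by imager.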

[2] = tested on: Hua2; assay: Deep mutational scanning of Abp1 SH3, Abp1-Hua2 DHFR-PCA (DMS score); assay type: cell-based, Saccharomyces cerevisiae; details: Abp1-Hua2 DHFR-PCA; WT = 0; Fig. S3C-D
Procedure, shortened: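 Yeast carrying single-codon Abp1 SH3 variants at the endogenous locus, each paired with a Hua2 or Lsb3 DHFR-fragment partner; binding scored by growth over two successive 72 h PCA selections at 30 °C. Illumina counts before and after selection give the DMS score; independent duplicates.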

B1: BBC1: yeast SH3-containing protein; SH3-deleted or knockout strain (protein, UniProt P47068 1-1157, looked up)
Myosin tail …: MSEPEVPFKVVAQFPYKSDYEDDLNFEKDQEIIVTSVEDAEWYFGEYQDSNGDVIEGIFPKSFVAVQGSEVGKEAESSPNTGSTEQRTIQPEVEQKDLPEPISPETKKETLSGPVPVPAATVPVPAATVPVPAATAVSAQVQHDSSSGNGERKVPMDSPKLKARLSMFNQDITEQVPLPKSTHLDLENIPVKKTIVADAPKYYVPPGIPTNDTSNLERKKSLKENEKKIVPEPINRAQVESGRIETENDQLKKDLPQMSLKERIALLQEQQRLQAAREEELLRKKAKLEQEHERSAVNKNEPYTETEEAEENEKTEPKPEFTPETEHNEEPQMELLAHKEITKTSREADEGTNDIEKEQFLDEYTKENQKVEESQADEARGENVAEESEIGYGHEDREGDNDEEKEEEDSEENRRAALRERMAKLSGASRFGAPVGFNPFGMASGVGNKPSEEPKKKQHKEKEEEEPEQLQELPRAIPVMPFVDPSSNPFFRKSNLSEKNQPTETKTLDPHATTEHEQKQEHGTHAYHNLAAVDNAHPEYSDHDSDEDTDDHEFEDANDGLRKHSMVEQAFQIGNNESENVNSGEKIYPQEPPISHRTAEVSHDIENSSQNTTGNVLPVSSPQTRVARNGSINSLTKSISGENRRKSINEYHDTVSTNSSALTETAQDISMAAPAAPVLSKVSHPEDKVPPHPVPSAPSAPPVPSAPSVPSAPPVPPAPPALSAPSVPPVPPVPPVSSAPPALSAPSIPPVPPTPPAPPAPPAPLALPKHNEVEEHVKSSAPLPPVSEEYHPMPNTAPPLPRAPPVPPATFEFDSEPTATHSHTAPSPPPHQNVTASTPSMMSTQQRVPTSVLSGAEKESRTLPPHVPSLTNRPVDSFHESDTTPKVASIRRSTTHDVGEISNNVKIEFNAQERWWINKSAPPAISNLKLNFLMEIDDHFISKRLHQKWVVRDFYFLFENYSQLRFSLTFNSTSPEKTVTTLQERFPSPVETQSARILDEYAQRFNAKVVEKSHSLINSHIGAKNFVSQIVSEFKDEVIQPIGARTFGATILSYKPEEGIEQLMKSLQKIKPGDILVIRKAKFEAHKKIGKNEIINVGMDSAAPYSSVVTDYDFTKNKFRVIENHEGKIIQNSYKLSHMKSGKLKVFRIVARGYVGW
Ratio Swap/WT Flag [1]: 0.7943 | Flag (2 bands) [1]: 76893

B2: WT (protein, UniProt P15891 2-592, looked up)
Actin-binding protein: ALEPIDYTTHSREIDAEYLKIVRGSDPDTTWLIISPNAKKEYEPESTGSSFHDFLQLFDETKVQYGLARVSPPGSDVEKIIIIGWCPDSAPLKTRASFAANFAAVANNLFKGYHVQVTARDEDDLDENELLMKISNAAGARYSIQTSSKQQGKASTPPVKKSFTPSKSPAPVSKKEPVKTPSPAPAAKISSRVNDNNDDDDWNEPELKERDFDQAPLKPNQSSYKPIGKIDLQKVIAEEKAKEDPRLVQKPTAAGSKIDPSSDIANLKNESKLKRDSEFNSFLGTTKPPSMTESSLKNDDDKVIKGFRNEKSPAQLWAERKAKQNSGNAETKAEAPKPEVPEDEPEGEPDVKDLKSKFEGLAASEKEEEEMENKFAPPPKKSEPTIISPKPFSKPQEPVKAEEAEQPKTDYKKIGNPLPGMHIEADNEEEPEENDDDWDDDEDEAAQPPLPSRNVASGAPVQKEEPEQEEIAPSLPSRNSIPAPKQEEAPEQAPEEEIEEEAEEAAPQLPSRSSAAPPPPPRRATPEKKPKENPWATAEYDYDAAEDNELTFVENDKIINIEFVDDDWWLGELEKDGSKGLFPSNYVSLGN
DMS score Hua2 [2]: 0 | Ratio Swap/WT Flag [1]: 0.6226 | Flag (2 bands) [1]: 60270
